From patent US20230331828A1

Molecular target: soluble Aβ (Aβ42) aggregates (human)
Assay: cell-based or functional assay

soluble Aβ (Aβ42) aggregates (human), sequence (peptide, as listed by the source): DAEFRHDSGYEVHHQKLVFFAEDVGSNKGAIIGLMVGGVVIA

Mean (Aβ spots per neuron); Isotype Control 1:50 (Aβ spots per neuron): 58.7
Substance: human IgG isotype control antibody
